Positions of bridges follow the written chain, without caps; N, C: chain ends. Non-standard residues stand in square brackets, D forms with d. No end group written: not given here. Nle = CCCC[C@H](N)C(=O)O

Test [1] has as its target brefeldin A-inhibited guanine nucleotide-exchange protein 3 (BIG3) (human) (UniProt Q5TH69). Kind of test: co-immunoprecipitation from peptide-treated MCF-7 cells, Western blotting; 10 µM each peptide. (In general: A western blot detects proteins with antibodies after separation by electrophoresis.)
For test [2] the target is unchanged. Kind of test: cell-based or functional assay.
The target is the same in test [3]. Nature of the test: co-immunoprecipitation with anti-BIG3 antibody from peptide-treated MCF-7 cells, PHB2 immunoblot, band area against untreated cells; 50 µM each peptide.
For test [4] the target is unchanged. Nature of the test: co-immunoprecipitation with anti-BIG3 antibody from peptide-treated MCF-7 cells, PHB2 immunoblot, band area against untreated cells; 50 µM peptide.
Test [5] concerns the target brefeldin A-inhibited guanine nucleotide-exchange protein 3 (BIG3) (human, UniProt Q5TH69 1-2177). Nature of the test: cell-based or functional assay.

Chain of brefeldin A-inhibited guanine nucleotide-exchange protein 3 (BIG3) (Q5TH69 whole entry): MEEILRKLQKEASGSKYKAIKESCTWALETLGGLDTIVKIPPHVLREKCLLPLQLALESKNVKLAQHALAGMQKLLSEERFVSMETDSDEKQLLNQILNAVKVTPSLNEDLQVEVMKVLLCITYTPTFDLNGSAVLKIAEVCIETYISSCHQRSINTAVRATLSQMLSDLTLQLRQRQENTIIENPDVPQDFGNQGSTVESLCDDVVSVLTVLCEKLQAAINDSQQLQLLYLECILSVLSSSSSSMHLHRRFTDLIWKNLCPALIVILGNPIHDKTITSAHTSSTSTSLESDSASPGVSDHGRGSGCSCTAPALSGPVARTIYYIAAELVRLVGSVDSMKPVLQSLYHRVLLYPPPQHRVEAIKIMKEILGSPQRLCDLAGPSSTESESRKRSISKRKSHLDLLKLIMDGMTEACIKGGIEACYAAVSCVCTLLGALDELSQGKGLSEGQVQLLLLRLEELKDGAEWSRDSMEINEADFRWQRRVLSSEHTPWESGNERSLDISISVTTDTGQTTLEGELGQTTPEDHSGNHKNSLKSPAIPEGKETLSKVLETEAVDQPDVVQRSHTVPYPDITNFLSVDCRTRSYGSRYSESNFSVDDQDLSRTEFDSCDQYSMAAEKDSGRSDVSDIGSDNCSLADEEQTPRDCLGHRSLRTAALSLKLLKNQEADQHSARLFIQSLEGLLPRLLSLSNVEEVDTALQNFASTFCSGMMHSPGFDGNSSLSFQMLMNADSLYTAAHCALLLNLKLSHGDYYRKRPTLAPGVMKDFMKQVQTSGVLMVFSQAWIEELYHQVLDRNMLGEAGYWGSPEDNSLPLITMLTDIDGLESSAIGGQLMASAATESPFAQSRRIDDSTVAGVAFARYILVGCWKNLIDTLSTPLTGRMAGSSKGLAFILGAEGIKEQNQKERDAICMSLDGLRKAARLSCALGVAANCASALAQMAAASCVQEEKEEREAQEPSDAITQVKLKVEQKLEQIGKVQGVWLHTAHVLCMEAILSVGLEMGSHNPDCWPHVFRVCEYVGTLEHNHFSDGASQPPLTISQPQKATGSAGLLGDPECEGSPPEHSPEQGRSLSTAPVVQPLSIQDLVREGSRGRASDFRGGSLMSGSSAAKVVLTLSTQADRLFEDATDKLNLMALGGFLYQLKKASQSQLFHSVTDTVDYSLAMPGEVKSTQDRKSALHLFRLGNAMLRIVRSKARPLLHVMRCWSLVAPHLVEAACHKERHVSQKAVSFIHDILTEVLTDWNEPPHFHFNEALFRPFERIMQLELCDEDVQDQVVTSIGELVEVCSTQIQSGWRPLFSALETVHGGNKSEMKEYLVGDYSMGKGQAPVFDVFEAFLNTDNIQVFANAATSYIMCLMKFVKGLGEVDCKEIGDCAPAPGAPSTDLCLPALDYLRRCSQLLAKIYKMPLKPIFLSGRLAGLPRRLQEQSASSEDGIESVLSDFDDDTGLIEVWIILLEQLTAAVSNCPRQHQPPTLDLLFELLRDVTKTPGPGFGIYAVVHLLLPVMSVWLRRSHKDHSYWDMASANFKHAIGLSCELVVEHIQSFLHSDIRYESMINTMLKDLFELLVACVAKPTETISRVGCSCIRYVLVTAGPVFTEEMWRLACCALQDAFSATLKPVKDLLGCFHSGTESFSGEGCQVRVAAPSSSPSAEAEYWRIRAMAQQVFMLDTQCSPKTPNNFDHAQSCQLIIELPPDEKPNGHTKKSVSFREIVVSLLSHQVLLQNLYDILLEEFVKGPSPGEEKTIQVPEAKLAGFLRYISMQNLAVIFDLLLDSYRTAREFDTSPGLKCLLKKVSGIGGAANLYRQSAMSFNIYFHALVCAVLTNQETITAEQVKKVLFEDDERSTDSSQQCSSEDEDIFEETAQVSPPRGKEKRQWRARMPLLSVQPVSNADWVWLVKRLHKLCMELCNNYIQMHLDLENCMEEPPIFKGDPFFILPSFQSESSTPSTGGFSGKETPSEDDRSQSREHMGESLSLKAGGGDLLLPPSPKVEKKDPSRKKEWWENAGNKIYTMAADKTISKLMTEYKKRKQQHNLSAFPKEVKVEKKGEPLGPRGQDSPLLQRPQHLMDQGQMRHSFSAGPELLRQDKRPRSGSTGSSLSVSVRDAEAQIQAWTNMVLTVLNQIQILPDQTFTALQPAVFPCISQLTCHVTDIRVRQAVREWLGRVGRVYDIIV
Chain of brefeldin A-inhibited guanine nucleotide-exchange protein 3 (BIG3) (human) (Q5TH69 whole entry): as above

For the molecule “combination of PHB2 peptides No. 1 (11-22aa) and No. 5 (76-90aa)”, the inhibition ratio of the interaction between BIG3 and PHB2 in test [1] is 67%. Besides, in test [2], the Ser39 phosphorylation of PHB2, band intensity compared to ERAP treatment came out at 70%; the growth suppressive effect on E2-dependent growth of MCF-7 is 88%; the suppression of E2-dependent growth of MCF-7, 10 µM each was 100%; the suppression of growth of MDA-MB-231, both peptides at their IC50, 96 h came to 62%. Also, the inhibition ratio of the binding between BIG3 and PHB2 in test [3] stood at 87%.
On to “PHB2 sequence-derived peptide No. 5 (76-90aa)”, for which the inhibition ratio of the binding between BIG3 and PHB2 in test [4] came out at 80%. In test [2], the IC50 against growth of triple-negative breast cancer cell line MDA-MB-231, 96 h stood at 273 nM; the Ser39 phosphorylation of PHB2, band intensity compared to ERAP treatment stood at 20%; the suppression of growth of MDA-MB-231, peptide alone at its IC50, 96 h turned out to be 50%; the suppression ratio of E2-dependent growth of MCF-7, 10 µM, 24 h is 51%. Further, in test [2], the suppression ratio of E2-dependent growth of MCF-7, peptide alone is 55%; the suppression ratio of estrogen (E2)-dependent growth of MCF-7, 10 µM, 24 h was 49%; the suppression ratio of estrogen-dependent growth of MCF-7, 10 µM, 24 h amounted to 54%.
Consider “combination of cyclic PHB2 peptides 11-21aa and 76-88aa”, for which, in test [1], the inhibition ratio of the interaction between BIG3 and PHB2 was determined as 81%. Moreover, in test [2], the suppression of E2-dependent growth of MCF-7, 4 µM cyclic 11-21aa and 2 µM cyclic 76-88aa, 24 hours came out at 82%; the suppression ratio of E2-dependent growth of MCF-7, 4 µM cyclic 11-21aa and 2 µM cyclic 76-88aa, up to 96 hours is 88%; the suppression ratio of E2-dependent growth of MCF-7, 10 µM each, 24 h turned out to be 96%.
On to “PHB2 sequence-derived peptide No. 1 (11-22aa)”, for which the inhibition ratio of the binding between BIG3 and PHB2 in test [4] amounted to 64%. In test [2], this molecule came in with an IC50 against growth of triple-negative breast cancer cell line MDA-MB-231, 96 h of 462 nM; a Ser39 phosphorylation of PHB2, band intensity compared to ERAP treatment of 40%; a suppression of estrogen-dependent growth of MCF-7, 10 µM, 24 h of 65%; a suppression of growth of MDA-MB-231, peptide alone at its IC50, 96 h of 50%. In test [2], the suppression ratio of E2-dependent growth of MCF-7, 10 µM, 24 h stood at 63%; the suppression ratio of E2-dependent growth of MCF-7, peptide alone came out at 65%; the suppression ratio of estrogen (E2)-dependent growth of MCF-7, 10 µM, 24 h worked out at 58%.
As to QYPIAYDIRARPRKI (not fully specified (C-terminus)) [alanine-mutated PHB2 peptide No. 71], the “suppression ratio of estrogen-dependent growth of MCF-7, 10 µM, 24 h” value in test [5] came out at 38%.
Take GPRGMGTALKLL (not fully specified (C-terminus)) [PHB2 sequence-derived peptide No. 40]: in test [5], the “suppression ratio of E2-dependent growth of MCF-7, in combination with 10 µM No. 5 (76-90aa)” value (shortened to “suppression ratio … with 10 µM No. 5 (76-90aa)”) was not below 90%.
QYPIIYAIRARPRKI (not fully specified (C-terminus)) [alanine-mutated PHB2 peptide No. 73]: the “suppression ratio of estrogen-dependent growth of MCF-7, 10 µM, 24 h” value in test [5] turned out to be 13%.
The same measure, in the same setting: the same measure for ESVFTVEGGHRAIRRRRRRRR-NH2 [PHB2 sequence-derived peptide No. 3 (38-50aa)]: 17%.
Turning to DLAGRLPAGPRG (not fully specified (C-terminus)) [PHB2 sequence-derived peptide No. 37], in test [5], the “suppression ratio … with 10 µM No. 5 (76-90aa)” value was not below 90%.
Take RPRKISSPTGSKDLQRRRRRRRR-NH2 [PHB2 sequence-derived peptide No. 6 (86-100aa)]: in test [5], the “suppression ratio of E2-dependent growth of MCF-7, peptide alone” value is approximately 10%.

B1: PHB2 peptide 11-90aa (peptide)
peptide: RLPAGPRGMGTALKLLLGAGAVAYGVRESVFTVEGGHRAIFFNRIGGVQQDTILAEGLHFRIPWFQYPIIYDIRARPRKI
Consider B1, for which, in test [5], the “Ser39 phosphorylation of PHB2, relative to ERAP treatment” value is 30% and the “suppression ratio of E2-dependent growth of MCF-7, 24 h, 50 µM” value worked out at 57%.
In the case of EGGHRAIFFNRIGG (not fully specified (C-terminus)) [PHB2 sequence-derived peptide No. 82], the “suppression ratio of estrogen-dependent growth of MCF-7, 10 µM, 24 h” value in test [5] is 59%.
In the case of PAGPRGMGTALK (not fully specified (C-terminus)) [PHB2 sequence-derived peptide No. 39], the “suppression ratio … with 10 µM No. 5 (76-90aa)” value in test [5] is not below 90%.
With LKDLAGRLPAGP (not fully specified (C-terminus)) [PHB2 sequence-derived peptide No. 36], in test [5], the “suppression ratio … with 10 µM No. 5 (76-90aa)” value was not below 90%.
Same read-out and setting: the same measure for AGRLPAGPRGMG (not fully specified (C-terminus)) [PHB2 sequence-derived peptide No. 38]: not below 90%.
ESVFTVEGGHRAIFFNRIGG (not fully specified (C-terminus)) [PHB2 sequence-derived peptide No. 83]: the “suppression ratio of estrogen-dependent growth of MCF-7, 10 µM, 24 h” value in test [5] was found to be 61%.
As for RLPA[dL]PR[dL]MGTARRRRRRRR (not fully specified (C-terminus)) [PHB2 peptide 11-22aa with glycines at positions 15 and 18 substituted with D-leucines], the “suppression ratio of estrogen-dependent growth of MCF-7” value in test [5] is approximately 65%.
Consider TVEGGHRAIRRRRRRRR-NH2 [PHB2 sequence-derived peptide No. 2 (42-50aa)], for which the “suppression ratio of estrogen-dependent growth of MCF-7, 10 µM, 24 h” value in test [5] was determined as 20%.

B2: cyclic PHB2 peptide 76-88aa (peptide)
peptide: CQYPIIYDIRARPRCF[Nal]RRRR
modifications: disulfide 1-15 (inferred); not fully specified; also: X17: an unnatural amino acid, amide bond between the added C-terminal and N-terminal residues (cyclic)
In the case of B2, in test [5], the “IC50 for E2-dependent growth of MCF-7” value came to 2110 nM; the “suppression ratio of E2-dependent growth of MCF-7, 2 µM, up to 96 hours” value was 59%; the “suppression ratio of E2-dependent growth of MCF-7, 10 µM, 24-hour treatment” value amounted to 58%; the “suppression ratio of E2-dependent growth of MCF-7, 10 µM, after 96 hours” value worked out at 72%.
For the molecule RLPAAPRGMGTA (not fully specified (C-terminus)) [alanine-mutated PHB2 peptide No. 59], the “suppression ratio of estrogen-dependent growth of MCF-7, 10 µM, 24 h” value in test [5] worked out at 19%.
The same measure, in the same setting: as for RLPAGPRAMGTA (not fully specified (C-terminus)) [alanine-mutated PHB2 peptide No. 62], the figure is 8%.
QYPIIADIRARPRKI (not fully specified (C-terminus)) [alanine-mutated PHB2 peptide No. 72]: the “suppression ratio of estrogen-dependent growth of MCF-7, 10 µM, 24 h” value in test [5] is 37%.

B3: cyclic PHB2 peptide 11-21aa (peptide)
peptide: CRLPAGPRG[Nle]GTCF[Nal]RRRR
modifications: disulfide 1-13; not fully specified; also: amide bond between the added C-terminal and N-terminal residues (cyclic)
Regarding B3, in test [5], the “IC50 for E2-dependent growth of MCF-7” value was determined as 4060 nM; the “suppression ratio of E2-dependent growth of MCF-7, 4 µM, up to 96 hours” value came to 41%; the “suppression ratio of E2-dependent growth of MCF-7, 10 µM, 24-hour treatment” value came out at 53%; the “suppression ratio of E2-dependent growth of MCF-7, 10 µM, after 96 hours” value is 67%.

The values are drawn from patent US20220098256A1 (TOKUSHIMA UNIVERSITY, published 2022).
